B1: Glutamate receptor ionotropic, kainate 2 (Rattus norvegicus (Rat)), P42260 (parent)
chain: MKIISPVLSNLVFSRSIKVLLCLLWIGYSQGTTHVLRFGGIFEYVESGPMGAEELAFRFAVNTINRNRTLLPNTTLTYDTQKINLYDSFEASKKACDQLSLGVAAIFGPSHSSSANAVQSICNALGVPHIQTRWKHQVSDNKDSFYVSLYPDFSSLSRAILDLVQFFKWKTVTVVYDDSTGLIRLQELIKAPSRYNLRLKIRQLPADTKDAKPLLKEMKRGKEFHVIFDCSHEMAAGILKQALAMGMMTEYYHYIFTTLDLFALDVEPYRYSGVNMTGFRILNTENTQVSSIIEKWSMERLQAPPKPDSGLLDGFMTTDAALMYDAVHVVSVAVQQFPQMTVSSLQCNRHKPWRFGTRFMSLIKEAHWEGLTGRITFNKTNGLRTDFDLDVISLKEEGLEKIGTWDPASGLNMTESQKGKPANITDSLSNRSLIVTTILEEPYVLFKKSDKPLYGNDRFEGYCIDLLRELSTILGFTYEIRLVEDGKYGAQDDVNGQWNGMVRELIDHKADLAVAPLAITYVREKVIDFSKPFMTLGISILYRKPNGTNPGVFSFLNPLSPDIWMYILLAYLGVSCVLFVIARFSPYEWYNPHPCNPDSDVVENNFTLLNSFWFGVGALMQQGSELMPKALSTRIVGGIWWFFTLIIISSYTANLAAFLTVERMESPIDSADDLAKQTKIEYGAVEDGATMTFFKKSKISTYDKMWAFMSSRRQSVLVKSNEEGIQRVLTSDYAFLMESTTIEFVTQRNCNLTQIGGLIDSKGYGVGTPMGSPYRDKITIAILQLQEEGKLHMMKEKWWRGNGCPEEESKEASALGVQNIGGIFIVLAAGLVLSVFVAVGEFLYKSKKNAQLEKRSFCSAMVEELRMSLKCQRRLKHKPQAPVIVKTEEVINMHTFNDRRLPGKETMA

Variants of: B1
Settings: with MAP3K11, Q16584
MAP3K11, Q16584, sequence (Q16584 whole entry, looked up): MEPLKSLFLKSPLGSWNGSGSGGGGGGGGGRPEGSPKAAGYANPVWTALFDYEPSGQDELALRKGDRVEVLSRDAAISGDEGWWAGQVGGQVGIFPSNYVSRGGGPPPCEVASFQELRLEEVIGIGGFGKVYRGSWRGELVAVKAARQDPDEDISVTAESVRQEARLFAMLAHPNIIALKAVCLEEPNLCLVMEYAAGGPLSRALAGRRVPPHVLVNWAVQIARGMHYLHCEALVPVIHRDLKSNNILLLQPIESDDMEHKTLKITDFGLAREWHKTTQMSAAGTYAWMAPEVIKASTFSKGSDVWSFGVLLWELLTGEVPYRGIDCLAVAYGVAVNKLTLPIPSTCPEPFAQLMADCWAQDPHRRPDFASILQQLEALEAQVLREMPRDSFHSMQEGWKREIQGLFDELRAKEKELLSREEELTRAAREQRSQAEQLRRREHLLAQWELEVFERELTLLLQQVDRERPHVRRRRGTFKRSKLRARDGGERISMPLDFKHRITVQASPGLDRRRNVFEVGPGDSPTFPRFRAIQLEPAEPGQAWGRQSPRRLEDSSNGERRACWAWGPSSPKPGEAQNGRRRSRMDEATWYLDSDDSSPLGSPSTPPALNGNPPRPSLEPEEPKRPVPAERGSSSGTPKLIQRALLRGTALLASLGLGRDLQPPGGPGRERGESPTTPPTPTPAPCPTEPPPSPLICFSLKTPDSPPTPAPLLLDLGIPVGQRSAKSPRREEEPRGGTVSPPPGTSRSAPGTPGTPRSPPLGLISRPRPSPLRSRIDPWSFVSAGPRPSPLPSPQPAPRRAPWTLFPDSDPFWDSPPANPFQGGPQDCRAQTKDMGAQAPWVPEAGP

Row | effect of a mutation on the interaction | Variant
1 | decreasing interaction | K886R

Source: IntAct's records for PubMed 22483987
